US20090048117A1 (Harvard, published 2009)

T1: NFAT3 expressed from an expression construct
T1 sequence (Q14934 1-902, species assumed, looked up): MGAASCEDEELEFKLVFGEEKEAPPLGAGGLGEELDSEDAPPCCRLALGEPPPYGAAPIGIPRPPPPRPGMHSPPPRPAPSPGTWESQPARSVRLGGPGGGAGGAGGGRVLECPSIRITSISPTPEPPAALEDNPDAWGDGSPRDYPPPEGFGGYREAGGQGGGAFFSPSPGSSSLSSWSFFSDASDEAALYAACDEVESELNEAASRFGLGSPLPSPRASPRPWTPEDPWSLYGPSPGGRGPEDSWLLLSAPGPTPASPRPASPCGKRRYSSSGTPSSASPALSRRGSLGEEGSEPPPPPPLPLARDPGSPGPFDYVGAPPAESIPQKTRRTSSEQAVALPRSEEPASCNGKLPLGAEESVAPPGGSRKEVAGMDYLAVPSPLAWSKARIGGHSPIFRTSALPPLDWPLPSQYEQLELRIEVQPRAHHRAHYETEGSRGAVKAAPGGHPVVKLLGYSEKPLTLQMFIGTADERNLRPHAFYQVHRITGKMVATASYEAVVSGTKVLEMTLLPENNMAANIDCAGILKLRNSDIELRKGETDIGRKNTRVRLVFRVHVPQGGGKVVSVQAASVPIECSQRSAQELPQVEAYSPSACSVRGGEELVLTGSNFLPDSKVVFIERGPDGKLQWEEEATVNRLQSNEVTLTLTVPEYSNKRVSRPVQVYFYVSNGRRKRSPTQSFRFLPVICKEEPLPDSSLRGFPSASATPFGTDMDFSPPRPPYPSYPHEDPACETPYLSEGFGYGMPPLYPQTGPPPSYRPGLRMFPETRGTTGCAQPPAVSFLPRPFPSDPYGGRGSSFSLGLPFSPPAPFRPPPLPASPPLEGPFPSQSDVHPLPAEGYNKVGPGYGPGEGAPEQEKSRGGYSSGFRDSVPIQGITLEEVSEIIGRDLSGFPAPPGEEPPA

T2: NFAT4 expressed from an expression construct
T2 sequence (Q12968 2-1075, species assumed, looked up): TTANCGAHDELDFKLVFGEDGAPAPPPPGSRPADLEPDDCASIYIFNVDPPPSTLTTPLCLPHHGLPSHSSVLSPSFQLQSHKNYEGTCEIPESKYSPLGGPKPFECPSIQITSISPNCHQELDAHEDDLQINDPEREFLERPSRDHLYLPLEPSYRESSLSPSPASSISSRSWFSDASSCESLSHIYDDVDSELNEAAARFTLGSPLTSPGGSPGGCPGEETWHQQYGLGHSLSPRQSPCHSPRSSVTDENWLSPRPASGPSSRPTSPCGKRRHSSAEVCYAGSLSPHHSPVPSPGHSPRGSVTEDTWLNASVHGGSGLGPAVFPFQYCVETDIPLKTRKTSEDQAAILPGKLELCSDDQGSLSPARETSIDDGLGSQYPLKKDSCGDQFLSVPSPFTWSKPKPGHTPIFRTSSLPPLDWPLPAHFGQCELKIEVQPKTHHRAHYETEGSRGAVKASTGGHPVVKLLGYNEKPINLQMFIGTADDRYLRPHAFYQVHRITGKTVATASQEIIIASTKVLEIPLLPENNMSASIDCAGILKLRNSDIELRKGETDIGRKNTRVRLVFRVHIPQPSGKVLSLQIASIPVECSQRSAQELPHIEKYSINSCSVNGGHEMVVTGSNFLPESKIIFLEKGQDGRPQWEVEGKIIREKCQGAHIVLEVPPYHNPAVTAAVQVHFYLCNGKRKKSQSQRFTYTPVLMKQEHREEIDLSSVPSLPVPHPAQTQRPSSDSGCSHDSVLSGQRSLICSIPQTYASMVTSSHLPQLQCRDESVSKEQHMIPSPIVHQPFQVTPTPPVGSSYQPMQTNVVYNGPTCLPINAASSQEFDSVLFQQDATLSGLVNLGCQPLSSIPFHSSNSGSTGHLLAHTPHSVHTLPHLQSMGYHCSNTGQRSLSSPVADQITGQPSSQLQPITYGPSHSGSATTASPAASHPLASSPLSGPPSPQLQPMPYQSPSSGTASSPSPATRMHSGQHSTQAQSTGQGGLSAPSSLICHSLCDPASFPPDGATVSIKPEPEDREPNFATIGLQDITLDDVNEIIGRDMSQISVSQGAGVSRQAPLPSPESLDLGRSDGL

T3: NFATc expressed from an expression construct
T3 sequence (O95644 1-943, species assumed, looked up): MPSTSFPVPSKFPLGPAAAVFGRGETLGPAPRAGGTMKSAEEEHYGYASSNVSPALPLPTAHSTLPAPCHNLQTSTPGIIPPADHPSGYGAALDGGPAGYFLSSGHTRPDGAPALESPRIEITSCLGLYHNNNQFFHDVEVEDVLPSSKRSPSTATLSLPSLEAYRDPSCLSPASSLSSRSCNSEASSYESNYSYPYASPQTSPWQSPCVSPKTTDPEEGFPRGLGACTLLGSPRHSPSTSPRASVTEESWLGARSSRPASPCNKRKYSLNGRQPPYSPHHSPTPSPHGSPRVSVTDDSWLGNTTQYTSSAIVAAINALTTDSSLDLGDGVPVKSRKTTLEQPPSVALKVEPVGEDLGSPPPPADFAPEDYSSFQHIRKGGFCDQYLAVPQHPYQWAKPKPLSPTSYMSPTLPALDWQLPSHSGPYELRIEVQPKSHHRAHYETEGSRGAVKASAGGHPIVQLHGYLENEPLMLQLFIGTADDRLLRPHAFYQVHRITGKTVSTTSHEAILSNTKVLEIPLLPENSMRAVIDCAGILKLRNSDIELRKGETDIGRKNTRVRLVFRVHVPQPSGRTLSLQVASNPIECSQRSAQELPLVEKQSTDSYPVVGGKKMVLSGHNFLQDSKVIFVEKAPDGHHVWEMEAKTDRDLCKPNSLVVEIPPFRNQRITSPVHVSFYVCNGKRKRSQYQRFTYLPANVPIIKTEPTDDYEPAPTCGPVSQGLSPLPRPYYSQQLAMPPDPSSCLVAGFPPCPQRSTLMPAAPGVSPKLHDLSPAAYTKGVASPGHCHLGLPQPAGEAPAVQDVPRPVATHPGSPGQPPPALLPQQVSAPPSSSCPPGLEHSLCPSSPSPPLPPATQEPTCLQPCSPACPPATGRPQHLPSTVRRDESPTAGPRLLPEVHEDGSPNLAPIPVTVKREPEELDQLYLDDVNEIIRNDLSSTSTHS

T4: CARM1 of Jurkat cell lysates (human, UniProt Q86X55 2-608, limits assumed)
T4 sequence (looked up): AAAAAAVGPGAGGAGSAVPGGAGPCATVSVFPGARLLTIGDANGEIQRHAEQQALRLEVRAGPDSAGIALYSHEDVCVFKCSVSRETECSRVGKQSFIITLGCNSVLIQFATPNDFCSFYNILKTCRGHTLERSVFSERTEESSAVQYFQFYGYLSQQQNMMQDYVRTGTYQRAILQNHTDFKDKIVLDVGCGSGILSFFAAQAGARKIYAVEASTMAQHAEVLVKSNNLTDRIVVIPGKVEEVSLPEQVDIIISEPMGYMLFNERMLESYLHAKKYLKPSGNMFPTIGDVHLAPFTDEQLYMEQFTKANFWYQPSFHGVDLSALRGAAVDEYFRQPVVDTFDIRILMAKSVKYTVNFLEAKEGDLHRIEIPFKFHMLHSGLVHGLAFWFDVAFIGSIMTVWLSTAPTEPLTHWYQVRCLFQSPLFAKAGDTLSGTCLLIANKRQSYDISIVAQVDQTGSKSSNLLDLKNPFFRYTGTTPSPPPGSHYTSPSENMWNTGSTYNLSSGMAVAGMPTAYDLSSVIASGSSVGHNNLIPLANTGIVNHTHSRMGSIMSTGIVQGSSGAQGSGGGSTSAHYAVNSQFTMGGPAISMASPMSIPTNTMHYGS

B1: NIP45 expressed from a NIP45 expression plasmid (other)
chain: MAEPLRGRGPRSRGGRGARRARGARGRCPRARQSPARLIPDTVLVDLVSDSDEEVLEVADPVEVPVARLPAPAKPEQDSDSDSEGAAEGPAGAPRTLVRRRRRRLLDPGEAPVVPVYSGKVQSSLNLIPDNSSLLKLCPSEPEDEADLTNSGSSPSEDDALPSGSPWRKKLRKKCEKEEKKMEEFPDQDISPLPQPSSRNKSRKHTEALQKLREVNKRLQDLRSCLSPKQHQSPALQSTDDEVVLVEGPVLPQSSRLFTLKIRCRADLVRLPVRMSEPLQNVVDHMANHLGVSPNRILLLFGESELSPTATPSTLKLGVADIIDCVVLASSSEATETSQELRLRVQGKEKHQMLEISLSPDSPLKVLMSHYEEAMGLSGHKLSFFFDGTKLSGKELPADLGLESGDLIEVWG
B2: GST-NIP45 fusion protein (bacterially expressed, full length NIP45) (other)
chain: MAEPLRGRGPRSRGGRGARRARGARGRCPRARQSPARLIPDTVLVDLVSDSDEEVLEVADPVEVPVARLPAPAKPEQDSDSDSEGAAEGPAGAPRTLVRRRRRRLLDPGEAPVVPVYSGKVQSSLNLIPDNSSLLKLCPSEPEDEADLTNSGSSPSEDDALPSGSPWRKKLRKKCEKEEKKMEEFPDQDISPLPQPSSRNKSRKHTEALQKLREVNKRLQDLRSCLSPKQHQSPALQSTDDEVVLVEGPVLPQSSRLFTLKIRCRADLVRLPVRMSEPLQNVVDHMANHLGVSPNRILLLFGESELSPTATPSTLKLGVADIIDCVVLASSSEATETSQELRLRVQGKEKHQMLEISLSPDSPLKVLMSHYEEAMGLSGHKLSFFFDGTKLSGKELPADLGLESGDLIEVWG
notes: also called recombinant GST-NIP45; recombinant full-length NIP45; not shown: glutathione-S-transferase (GST) fusion partner

Tests used:
[1] = biological target: T1, NFAT3 expressed from an expression …; assay: cell-based or functional assay
[2] = biological target: T2, NFAT4 expressed from an expression …; assay: cell-based or functional assay
[3] = biological target: T3, NFATc expressed from an expression …; assay: cell-based or functional assay
[4] = biological target: T4, CARM1 of Jurkat cell lysates; assay: GST pull-down of Jurkat cell lysates, immunoblot with a polyclonal CARM1 antibody
Description: FIGS. 16A-16C depict the interaction of NIP45 and PRMT. (A) Jurkat cell lysates were used in pulldown assays with 25 μg of recombinant GST, GST-NIP45, and GST-ΔN-NIP45. The presence of PRMT1 or CARM1 in pulldown samples was determined by immunoblotting with a monoclonal PRMT1 antibody and a polyclonal CARM1 antibody. PVDF membranes were reprobed with anti-GST antibodies to determine equal amount of recombinant proteins in pulldown samples. (B) Flag-NIP45or Flag-ΔN-NIP45 or vector control and HA-PRMT1 expression constructs were transfected in 293 cells. Lysates were immunoprecipitated with anti-Flag agarose and interaction with PRMT1 was determined by probing immunoblots with a monoclonal anti-HA antibody. Equal loading was assessed by probing with an anti-Flag antibody. (C) Lysates from unstimulated or 60 min PMA/ionomycin stimulated day 7 Th1 or Th2 differentiation cultures were immunoprecipitated with a monoclonal PRMT1 antibody or appropriate isotype control. Interaction with endogenous NIP45 was determined by immunoblotting PRMT1 antibody to determine equal loading.
Because PRMT1 methylates NIP45, their interaction was examined more closely. To determine specificity of interaction GST-NIP45 and GST-ΔN-NIP45 fusion proteins were used in pulldown assays of Jurkat cell lysates. […]

| Binder | transactivation of a 3X NFAT-CAT reporter in HepG2 cells [1] [fold] | transactivation of a 3X NFAT-CAT reporter in HepG2 cells [2] [fold] | transactivation of a 3X NFAT-CAT reporter in HepG2 cells [3] [fold] | binding result [4] |
| --- | --- | --- | --- | --- |
| B1 | 3 | 2 | 4 |  |
| B2 |  |  |  | no binding (tested: 25 µg of recombinant protein) |
